For test [1], the target named is EGFR peptide 287-302 (806 peptide epitope) (human). The experiment in a line: BIAcore, peptide 287-302 immobilised by amine coupling.
For test [2] the target is unchanged. The experiment in a line: BIAcore, peptide 287-302 immobilised by Pms-Ser coupling. A general note: SPR reads the build-up and loss of mass on a sensor chip optically.
Test [3] has the same target. In words: BIAcore, peptide 287-302 immobilised by thiol coupling.
In test [4] the target is EGFR of A431 cells (Homo sapiens, UniProt P00533). The experiment in a line: ELISA of 806 reactivity in lysate of AG1478 treated cells. Type of test: cell-based. The settings on record: increasing amounts of AG1478 (0.5 μM and 5 μM). On the technique in general: ELISA stands for enzyme-linked immunosorbent assay.
In test [5] the test system is A431 xenografts. In words: combination therapy with AG1478, preventative model. Type of test: in vivo, mice. As to conditions: 0.1 mg mAb806; 400 μg AG1478. The method, then: AG1478 (4-(3-Chloroanilino)-6,7-dimethoxyquinazoline) is a potent and selective inhibitor of the EGFR kinase versus HER2-neu and platelet-derived growth factor receptor kinase (Calbiochem Cat. No. 658552). […] The results are illustrated in FIG. 12. […] 400 μg AG1478 was administered at 0, 2, 4, 7, 9, and 11 days post xenograft.

The target in test [6] is de2-7 EGFR (human) (UniProt P00533). The experiment in a line: IHC glioblastoma, amplified EGFR with de2-7 EGFR.
The target in test [7] is amplified / overexpressed wild-type EGFR (human) (UniProt P00533). The experiment in a line: IHC glioblastoma, amplified EGFR, no de2-7 EGFR.
Test [8] addresses wtEGFR-FLAG on Ba/F3 cells (human) (UniProt P00533). In words: FACS median fluorescence, Ba/F3 cells, reference M2 anti-FLAG.
Test [9] deals with amplified / overexpressed wild-type EGFR (human) (UniProt P00533). In words: Scatchard analysis, 125I-labelled 528, A431 cells.
Test [10] addresses C271A/C283A-EGFR on Ba/F3 cells (human) (UniProt P00533). The experiment in a line: FACS median fluorescence, Ba/F3 cells, average for four independent clones, reference M2.
Test [11] concerns DU145 xenografts. In words: established xenograft model. Type of test: in vivo, nude mice. As to conditions: day 67; 1 mg i.p. An excerpt: Xenografts were allowed to establish for 18 days before therapy commenced (3 times a week for 3 weeks on days indicated). At this time the average tumor volume was 90 mm^3 (FIG. 68D).
For test [12], the system named is EGFR fragments. The experiment in a line: Western blot of GH/EGFR fragment fusion proteins. Type of test: binding, human. The method, then: The day prior to transfection with these fragments, human 293T embryonic-kidney fibroblasts were seeded at 8×10^5 per well in 6-well tissue culture plates containing 2 ml of media. Cells were transfected with 3-4 μg of plasmid DNA complexed with Lipofectamine™ 2000 (Invitrogen) according to the manufacturer's instructions. […] Parallel membranes were probed overnight with mAb 9B11 (1:5000, Cell Signaling Technology, Danvers, Massachusetts) to detect the c-myc epitope. Membranes were washed in TBST, and incubated in blocking buffer containing horseradish peroxidase-conjugated rabbit anti-mouse IgG (Biorad) at a 1:5000 dilution for 2 h at room temperature. Blots were then washed in TBST, and developed using autoradiographic film following incubation with Western Pico Chemiluminescent Substrate (Pierce, Rockford, Illinois).
(§1) Expression of EGFR proteins on the yeast cell surface was performed as previously described (Johns et al., 2004).
On the technique in general: In western blotting, separated proteins are transferred to a membrane and probed.

The subject of test [13] is xenograft A431. The experiment in a line: immunohistochemistry of xenograft sections. The arrangement: species or system human. The method, then: (§2) Xenografts were excised and bisected. One half was fixed in 10% formalin/PBS before being embedded in paraffin. Four micron sections were then cut and stained with haematoxylin and eosin (H&E) for routine histological examination. The other half was embedded in Tissue Tek® OCT compound (Sakura Finetek, Torrance, CA), frozen in liquid nitrogen and stored at −80° C. Thin (5 micron) cryostat sections were cut and fixed in ice-cold acetone for 10 min followed by air drying for a further 10 min. Sections were blocked in protein blocking reagent (Lipshaw Immunon, Pittsburgh U.S.A.) for 10 min and then incubated with biotinylated primary antibody (1 mg/ml), for 30 min at room temperature (RT). All antibodies were biotinylated using the ECL™ protein biotinylation module (Amersham, Baulkham Hills, Australia), as per the manufacturer's instructions. After rinsing with PBS, sections were incubated with a streptavidin horseradish peroxidase complex for a further 30 min (Silenus, Melbourne, Australia). Following a final PBS wash the sections were exposed to 3-amino-9-ethylcarbozole (AEC) substrate (0.1 M acetic acid, 0.1 M sodium acetate, 0.02 M AEC (Sigma Chemical Co., St Louis, MO)) in the presence of hydrogen peroxide for 30 min. Sections were rinsed with water and counterstained with hematoxylin for 5 min and mounted.
(§3) Bound antibody was detected using the Dako Envision™+HRP detection system as per manufacturer's instructions. Sections were finally rinsed with water, counterstained with hematoxylin and mounted.

The subject of test [14] is xenograft U87MG (native). The experiment in a line: immunohistochemistry of xenograft sections. The arrangement: species or system human. The method, then:
as §2, §3

In test [15] the test system is EGFR fragments displayed on yeast. In words: yeast surface display of EGFR fragments. In kind it is binding, human. The method, then: as §1
Briefly, transformed colonies were grown at 30° C. in minimal media containing yeast nitrogen base, casein hydrolysate, dextrose, and phosphate buffer pH 7.4, on a shaking platform for approximately one day until an OD600 of 5-6 was reached. Yeast cells were then induced for protein display by transferring to minimal media containing galactose, and incubated with shaking at 30° C. for 24 h. Cultures were then stored at 4° C. until analysis. Raw ascites fluid containing the c-myc monoclonal antibody 9E10 was obtained from Covance (Richmond, CA). 1×10^6 yeast cells were washed with ice-cold FACS buffer (PBS containing 1 mg/ml BSA) and incubated with either anti-c-myc ascites (1:50 dilution), or human EGFR monoclonal antibody (10 μg/ml) in a final volume of 50 μl, for 1 hr at 4° C. The cells were then washed with ice cold FACS buffer and incubated with phycoerythrin-labelled anti-mouse IgG (1:25 dilution), in a final volume of 50 μl for 1 h at 4° C., protected from light. After washing the yeast cells with ice-cold FACS buffer, fluorescence data was obtained with a Coulter Epics XL flow cytometer (Beckman-Coulter), and analyzed with WinMDI cytometry software (J. Trotter, Scripps University). […]

Test [16] has as its system DU145 cells. In words: FACS binding to cell lines. In kind it is cell-based, human. An excerpt: Clearly, mAb806 and mAb175 can recognize only a small proportion of the EGFR on cells in the presence of an autocrine stimulation loop.
Test [17] deals with normal human liver sections. In words: immunohistochemistry with mAb175. How it is done: as §3
The U87MG cell line only expresses modest levels of the wild-type EGFR (FIG. 66A) and has no detectable EGFR autocrine loop.

Test [18] has as its system established U87MG.de2-7 xenografts. In words: in vivo 806 therapy study. The arrangement: species or system BALB/c nude mice. As to conditions: 6 x 1 mg IP, versus PBS. How it is done:
(§4) To establish xenografts, mice were injected subcutaneously into the right and left inguinal mammary line with 1×10^6 A431 […] cells or 1×10^6 U87MG.de2-7 glioma cells in 100 μl of PBS. Tumor volume (TV) was calculated by the formula [(length×width^2)/2] where length was the longest axis and width the measurement at right angles to length. […] Therapy was administered on days 6, 8, 11, 13, 15 and 18 for A431, and days 4, 6, 8, 11, 13 and 15 for the U87MG.de2-7 cell lines respectively. Mean±SEM tumor volumes until termination of the experiments due to ethical considerations of tumor burden are presented in FIG. 91 for the A431 xenograft until day 25, and in FIG. 92 for U87MG.de2-7 xenografts until day 31.

In test [19] the test system is established A431 xenografts. The experiment in a line: in vivo 806 therapy study. The arrangement: species or system BALB/c nude mice. The settings on record: 6 x 1 mg IP, versus PBS. How it is done: as §4
For test [20], the target named is T1, EGFR peptide 287-302 (806 peptide epitope) (human, not fully specified (bridges); also: oxidized form in the crystals).
T1 construct: Immobilised by amine, thiol or Pms-Ser coupling; oxidized form in the crystals
T1 peptide: CGADSYEMEEDGVRKC
The experiment in a line: BIAcore, immobilised peptide, 200 nM antibody.

In test [21] the target is T2, denatured soluble domain of the EGFR (sEGFR) (Homo sapiens, UniProt P00533).
T2 construct: sEGFR is the recombinant extracellular domain (amino acids 1-621) of the wild-type EGFR; made in house; host or cells: CHO cells
In words: competition ELISA. In kind it is binding. As to conditions: after unlabeled blocking antibody. How it is done: Briefly, the denatured soluble domain of the EGFR (sEGFR) was coated on to ELISA plates. The unlabeled 124 or 1133 antibodies were then added across the plate in increasing concentrations.

Test [22] concerns xenograft U87MGΔEGFR. The experiment in a line: immunohistochemistry of xenograft sections. More on the design: species or system human.

Entries after “also recorded” stand apart in the source; their conditions may differ. Where no end group is shown, it is not given here.

For the molecule mAb175 (antibody), the results for the dissociation constant (Kd) in test [1], in test [2] and in [3] were 154 nM, 35 nM and 143 nM, respectively.
Turning to `COc1cc2ncnc(Nc3cccc(Cl)c3)c2cc1OC` [AG1478, 4-(3-Chloroanilino)-6,7-dimethoxyquinazoline, reference compound], the “mAb806 binding to EGFR in cell lysate” value in test [4] is reported as “significantly increased”. Further, the tumor volume entry in [5] was “significant reduction of tumor volume”.
As for 528 antibody, the percent of immunoreactive cells in test [6] and in [7] was above 75% each time. The ratio of antibody binding mAb 528/M2 in test [8] stood at 1.37; in test [10] it was 1.08. The molecule also registered a binding sites per cell (sites per cell) in test [9] of 2e+06.
Consider “mAb175: murine monoclonal antibody, SEQ ID NO:129 and SEQ ID NO:134”, for which the mean tumor volume in test [11] amounted to 815 mm^3. The “reactivity with EGFR fragments” value in test [12] was “reacted with both the 274-501 and 282-501 EGFR fragments; also recorded: did not detect fragments commencing at amino acid 290 or 298; also recorded: a 274-501 EGFR fragment with the mAb806 epitope deleted (Δ287-302) was also negative for mAb175 binding”. Also, the immunohistochemical staining result in test [13] is reported as “stains”; in test [14], “does not stain”. Besides, the “binding to EGFR fragments” value in [15] was “recognized the yeast fragment 273-621; also recorded: not to fragments 1-176, 1-294, 294-543, or 475-621; also recorded: binds to the denatured fragment of the 273-621”. The FACS binding entry in test [16] is recorded as “bind to DU145 cells”. For the same molecule, in test [17], the staining entry is “does not bind”.

B1: hu806: humanized (veneered) 806 antibody, SEQ ID NO:42 and SEQ ID NO:47 (antibody, V domains shown)
VH: MDWTWRILFLVAAATGVHSQVQLQESGPGLVKPSQTLSLTCTVSGYSISSDFAWNWIRQPPGKGLEWMGYISYSGNTRYQPSLKSRITISRDTSKNQFFLKLNSVTAADTATYYCVTAGRGFPYWGQGTLVTVSS
VL: MDWTWRILFLVAAATGVHSDIQMTQSPSSMSVSVGDRVTITCHSSQDINSNIGWLQQKPGKSFKGLIYHGTNLDDGVPSRFSGSGSGTDYTLTISSLQPEDFATYYCVQYAQFPWTFGGGTKLEIKR
As for B1, the xenograft growth result in [18] is “significant reduction in tumor growth by day 20”; in test [19], “marked reduction in A431 xenograft growth”.

B2: mAb1133 (antibody, mouse IgG2a, V domains shown)
VH: DVQLQGSGPSLVKPSQSLSLTCTVTGYSITSDYAWNWIRQFPGNKLEWMGYISYSGNTRYNPSLRSRISITRDTSKNQFFLQLNSVTTEDTATYYCATAGRGFPYWGQGTLVTVSA
VL: DILMTQSPSSMSVSLGDTVNITCHSSQDINSNIGWLQQKPGKSFKGLIYHGTNLDDGVPSRFSGSGSGADYSLTISSLESEDFADYYCVQYGQFPWTFGGGTKLEIKR
notes: Mouse IgG2a; variable domains only
On to B2, for which the figures for the immunohistochemical staining entry in test [13] and in [22] were “pos. (predominantly” and “pos”, respectively. The “Binding to mAb806 peptide (RU), maximal” value in test [20] stood at 800 RU. For the same molecule, in test [21], the “Binding of biotin-labeled 806” value was “None”.

Values taken from patent US20240117073A1, “METHODS OF TREATING NEOPLASTIC ASTROCYTOMA” (Ludwig Institute for Cancer Research Ltd., priority 2009, published 2024).
